For this assay, the target named is T1, PD-1H (Homo sapiens, UniProt Q9H7M9).
T1 construct: Flag (N); expressed in transfected cells; host or cells: HEK293
In words: Co-immunoprecipitation of c-myc tagged MMP-13 constructs with Flag-PD-1H in HEK293 cells. Format: binding. Conditions: HEK293 cells co-transfected with Flag-PD-1H; IP with anti-c-myc; FIG. 5A. The protocol: To identify key binding domains between PD-1H and MMP-13, a series of truncated deletion mutants was tested. The MMP-13 zymogen has a pro-peptide domain (aa 20-103) that maintains latency, a catalytic domain (aa 103-268) containing the catalytic zinc-binding motif, and a hinge linker region (aa 269-280) that connects the catalytic domain region with the C-terminal hemopexin domain (aa 281-471).
WCL were analyzed as input. […].

Consider one molecule from patent US20230330196A1, “IMMUNOSUPPRESSIVE AGENTS” (The Trustees of Columbia University in the City of New York, priority 2020, published 2023).

B1: Hem: MMP-13 truncation mutant containing the hemopexin domain (delta aa 37-267) (protein)
chain: LPLPSGGDEDDLSEEDLPGDEDPNPKHPKTPDKCDPSLSLDAITSLRGETMIFKDRFFWRLHPQQVDAELFLTKSFWPELPNRIDAAYEHPSHDLIFIFRGRKFWALNGYDILEGYPKKISELGLPKEVKKISAAVHFEDTGKTLLFSGNQVWRYDDTNHIMDKDYPRLIEEDFPGIGDKVDAVYEKNGYIYFFNGPIQFEYSIWSNRIVRVMPANSILWC
modifications: left off: small tags and cut ends
Turning to B1, the “binding to PD-1H (co-IP)” value was “retained only a fraction of the wild-type binding activity”.
